Data on ten molecules can be found in patent publication US20170088602A1 (Bristol-Myers Squibb, published 2017).

Sequences and labels used below:
B1: 2987_H07 (designed binder)
chain: MGVSDVPRDLEVVAATPTSLLISWTLPHAGRAHYYRITYGETGGNSPVQEFTVPGRGVTATISGLKPGVDYTITVYAVTVTTTKVIHYKPISINYRTEIDKPSQHHHHHH
B2: ATI-1275 [N-ethylmaleimide] (designed binder)
chain: MGVSDVPRDLEVVAATPTSLLISWYLPYPAHMNYYRITYGETGGNSPVQEFTVPGRGLTATISGLKPGVDYTITVYAVTLTKSQILHHRPISINYRTEGSGCHHHHHH
modifications: N-ethylmaleimide on the Cys of the EGSGC tail
notes: cysteine mutant of 2524_D09
B3: 3115_E06 (designed binder)
chain: MGVSDVPRDLEVVAATPTSLLISWDAPAGLARYYRITYGETGGNSPVQEFTVVGRGNTATISGLKPGVDYTITVYAVTIFRDGPVTWDPISINYRTEIDKPSQHHHHHH
B4: 3115_D04 (designed binder)
chain: B3 chain with A28R, V53F, N57T, F80D, P84T, V85R, T86S, W87F
B5: 3116_A07 (designed binder)
chain: B3 chain with A28K
B6: 3116_H06 (designed binder)
chain: B3 chain with P84V, T86N, W87Y, D88G
B7: 3006_A10 (designed binder)
chain: B3 chain with A28G, V53I, N57S, F80D, P84V, V85N, T86H, W87F, D88A
B8: 3146_A08 (designed binder)
chain: B1 chain with T25S, H28N, A29P, R31N, T82D, K84G, V85F, H87T
B9: 3116_C01 (designed binder)
chain: B1 chain with T25S, H28N, A29P, R31I, V80L, T82G, T83S, K84D, V85T, H87F
B10: 3116_C06 (designed binder)
chain: B1 chain with T25S, H28R, A29P, R31N, T82G, T83K, K84D, H87K

Numbering of substitutions follows the chain as printed.

For the first assay, the target named is T1, human myostatin (mature, recombinant; R&D Systems) (human, UniProt O14793 267-375).
T1 construct: biotinylated in the mRNA display selection; also called GDF-8; mature myostatin
T1 sequence: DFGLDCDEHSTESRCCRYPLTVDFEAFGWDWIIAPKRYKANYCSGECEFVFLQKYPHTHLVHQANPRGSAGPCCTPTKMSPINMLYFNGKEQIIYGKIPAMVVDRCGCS
The assay can be described thus: SPR format A, 25C. From the text:
(§1) Anti-human Fc antibody (Biacore/GE) was immobilized on a Biacore CM5 chip via NHS/EDC coupling according to the manufacturer's instructions. […] A concentration range of anti-myostatin Adnectin was applied across all flow cells in HBSP running buffer. Regeneration of the chip surface between cycles was accomplished with two 30 second pulses of 3M MgCl₂. Kinetic traces of reference-subtracted sensorgrams were fit to a 1:1 binding model using Biaevaluation software.
One may read the Kd as the equilibrium constant for the complex coming apart. Turning to B1, the Kd amounted to 0.99 nM.

With B2, the dissociation constant (Kd) amounted to 0.15 nM.

In a further assay the target is T2, human BMP-11 (GDF-11; R&D Systems) (human, UniProt O95390 299-407).
T2 sequence (looked up): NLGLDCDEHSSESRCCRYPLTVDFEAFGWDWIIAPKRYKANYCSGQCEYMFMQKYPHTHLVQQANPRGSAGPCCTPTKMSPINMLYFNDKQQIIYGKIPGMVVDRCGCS
The assay can be described thus: SPR format A, 25C.
From the text: as §1
In the case of B1, binding was characterised by a dissociation constant (Kd) of 2.25 nM.

B2: binding was put at a Kd of 0.15 nM.

In another assay the target is T1, human myostatin (mature, recombinant; …). The assay can be described thus: cell-based or functional assay.
Consider B3, for which the “ARE-luciferase IC50” value was 0.07 nM.

As for B4, the “ARE-luciferase IC50” value worked out at 0.16 nM.

Consider B5, for which the “ARE-luciferase IC50” value worked out at 0.04 nM.

On to B6, for which the “ARE-luciferase IC50” value was 0.1 nM.

B7: the “ARE-luciferase IC50” value came to 0.08 nM.

Consider B1, for which the “ARE-luciferase IC50” value was determined as 0.02 nM.

As for B8, the “ARE-luciferase IC50” value is 0.7 nM.

Take B9: the “ARE-luciferase IC50” value came to 0.1 nM.

On to B10, for which the “ARE-luciferase IC50” value was 0.14 nM.

With B2, the “ARE-luciferase IC50” value was determined as 0.03 nM.

In a further assay the target is T2, human BMP-11 (GDF-11; R&D Systems). Briefly: cell-based or functional assay.
Turning to B3, the “ARE-luciferase IC50” value turned out to be 2 nM.

As to B4, the “ARE-luciferase IC50” value was determined as 3.6 nM.

With B5, the “ARE-luciferase IC50” value was 0.5 nM.

As to B6, the “ARE-luciferase IC50” value was found to be 1.6 nM.

B7: the “ARE-luciferase IC50” value worked out at 2 nM.

Turning to B1, the “ARE-luciferase IC50” value turned out to be 5.5 nM.

B8: the “ARE-luciferase IC50” value worked out at 48 nM.

On to B9, for which the “ARE-luciferase IC50” value came out at 6.7 nM.

For B10, the “ARE-luciferase IC50” value stood at 8.9 nM.

For B2, the “ARE-luciferase IC50” value amounted to 0.14 nM.

A further assay has as its target T3, human Activin A (R&D Systems) (human, UniProt P08476 311-426).
T3 sequence (looked up): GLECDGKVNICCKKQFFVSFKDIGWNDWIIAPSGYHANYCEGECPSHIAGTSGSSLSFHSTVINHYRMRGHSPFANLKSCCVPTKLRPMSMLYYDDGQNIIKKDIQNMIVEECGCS
The assay can be described thus: cell-based or functional assay.
With B3, the “ARE-luciferase IC50” value was over 1000 nM.

In the case of B4, the “ARE-luciferase IC50” value was over 1000 nM.

As to B5, the “ARE-luciferase IC50” value is over 1000 nM.

For B6, the “ARE-luciferase IC50” value was over 1000 nM.

For B7, the “ARE-luciferase IC50” value was over 2000 nM.

Consider B1, for which the “ARE-luciferase IC50” value was over 400 nM.

Regarding B8, the “ARE-luciferase IC50” value is over 1000 nM.

On to B9, for which the “ARE-luciferase IC50” value came out at 1000 nM.

B10: the “ARE-luciferase IC50” value is over 1000 nM.

As to B2, the “ARE-luciferase IC50” value worked out at 19 nM.

The target in another assay is T1, human myostatin (mature, recombinant; …). The assay can be described thus: cell-based or functional assay. This is another data set of the same source.
In the case of B3, the “pSmad2 IC50, 4-point” value turned out to be 60 pM.

Turning to B4, the “pSmad2 IC50, 4-point” value was 60 pM.

With B5, the “pSmad2 IC50, 4-point” value came to 60 pM.

Regarding B6, the “pSmad2 IC50, 4-point” value turned out to be 60 pM.

As to B7, the “pSmad2 % inhibition at 10 nM” value stood at 51%.

In the case of B8, the “pSmad2 IC50, 4-point” value was found to be 0.78 nM.

As for B9, the “pSmad2 IC50, 4-point” value worked out at 0.26 nM.

Take B10: the “pSmad2 IC50, 4-point” value came to 0.73 nM.

Another assay shares this target. Briefly: competitive HTRF (1889E01/myostatin/ActRIIb-Fc sandwich). From the text: An HTRF assay was used to measure the binding affinities of anti-myostatin Adnectins to myostatin. […] The Eu-W 1024 labeled Streptavidin is used to bind biotinylated 1889E01. […] In the presence of a competitive Adnectin, the HTRF signal decreases.
A general note: Time-resolved FRET reads energy transfer from a long-lived donor to a nearby acceptor.
The term IC50 denotes the concentration needed to halve the response being measured. For the molecule B3, the 50% inhibitory concentration (IC50) stood at 0.14 nM.

Turning to B4, the IC50 was determined as 0.2 nM.

For the molecule B5, the concentration for half-maximal inhibition (IC50) was determined as 0.11 nM.

With B6, the half-maximal inhibitory concentration (IC50) is 0.13 nM.

For B7, the half-inhibitory concentration (IC50) was found to be 0.15 nM.

Consider B8, for which the IC50 is 0.26 nM.

For B9, the half-inhibitory concentration (IC50) came to 0.35 nM.

In the case of B10, the half-inhibitory concentration (IC50) came to 0.18 nM.

B2: the IC50 was 0.19 nM.
